Data as given in patent US20060233822A1 (YANG SHENG TANG, published 2006).
Substitutions are numbered along the chain they refer to.

Assays:
C149-mut-8C11 = test: dot blot of E. coli lysate supernatant
7-peptide PVQMPWL = test: phage display panning on coated MAb; 1 clone
7-peptide ITNDFKQ = test: phage display panning on coated MAb; 1 clone
7-peptide SLPTLTL = test: phage display panning on coated MAb; 1 clone
7-peptide HPTLLRI = test: phage display panning on coated MAb; 5 clones
7-peptide INQKPTL = test: phage display panning on coated MAb; 1 clone
7-peptide SSMFFYR = test: phage display panning on coated MAb; 1 clone
7-peptide SAPSSKN = test: phage display panning on coated MAb; 1 clone
7-peptide SSYEWFI = test: phage display panning on coated MAb; 1 clone
7-peptide VSWNSLV = test: phage display panning on coated MAb; 1 clone
7-peptide SLVTGIL = test: phage display panning on coated MAb; 1 clone
7-peptide NHWASPR = test: phage display panning on coated MAb; 1 clone
7-peptide YQDSAKT = test: phage display panning on coated MAb; 2 clones
C149-mut-8H3 = molecular target: T1, C149-mut-8H3; test: dot blot of E. coli lysate supernatant
T1 chain: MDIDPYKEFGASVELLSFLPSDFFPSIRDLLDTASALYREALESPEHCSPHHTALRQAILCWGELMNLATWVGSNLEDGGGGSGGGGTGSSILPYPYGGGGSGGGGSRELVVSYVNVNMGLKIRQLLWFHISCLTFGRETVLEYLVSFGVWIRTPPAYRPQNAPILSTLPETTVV

7-peptide SPPNVRT = test: phage display panning on coated MAb; 1 clone
7-peptide SAHVLST = test: phage display panning on coated MAb; 1 clone
7-peptide STLFMNF = test: phage display panning on coated MAb; 1 clone
7-peptide SPKMPIL = test: phage display panning on coated MAb; 1 clone
polypeptide 209 = polypeptide 209 (hepatitis E virus); test: ELISA with 8C11
7-peptide ALWGPTS = test: phage display panning on coated MAb; 2 clones

B1: monoclonal antibody 8C11 (antibody, V domains shown)
VH: QVTLKESGPGILQPSQTLSLTCSFSGFSLSTSGMGVGWIRQPSGKGLEWLAHIWWDDVKRYSPALKSRLTISKDTSSSQLFLKIASVDTADTATYYCARIKSVITTGDYALDYWGQGTSVAVSS
VL: DIQMTQSPASLSVSVGETVTITCRASEIIYSNLAWYQQKQGKSPQLLVYSATNLAEGVPSRFSGSGSGTQYSLKINSLQSEDFGSYYCQHFWGNPWTFGGGTKLEIKR
notes: also called MAb 8C11; HRP-8C11
B1: binds (C149-mut-8C11); binds (7-peptide PVQMPWL); binds (7-peptide ITNDFKQ). B1: binds (7-peptide SLPTLTL); binds (7-peptide HPTLLRI).

B2: monoclonal antibody 13D8 (antibody, V domains shown)
VH: DVQLQESGPGLVKPSQSLSLSCSVTGYSITSGYYWNWIRQFPGNKLEWMGYIGYDGSNKYNPSLKNRISITRDTSKNQFFLKLTSVTTGDTATYYCVRDVKYYFDYWGQGTTVTVSS
VL: B1 VL with I28N, S50A, E56D, N76S, N94S
notes: also called MAb 13D8; HRP-13D8
B2: binds (7-peptide INQKPTL); binds (7-peptide SSMFFYR); binds (7-peptide SAPSSKN). B2: binds (7-peptide SSYEWFI); binds (7-peptide VSWNSLV); binds (7-peptide SLVTGIL). B2: binds (7-peptide NHWASPR); binds (7-peptide YQDSAKT).

B3: monoclonal antibody 8H3 (antibody, V domains shown)
VH: QVQLKESGPGLVAPSQSLSITCTVSGFSLIGYGVNWVRQPPEKGLEWLGMIWGDGSTDYNSALKSRLSITKDNSKSQVFLKMNSLQTDDTARYYCAMGVRPDPFDYWGQGTLVTVSA
VL: NIMMTQSPSSLAVSAGEKVTMSCKSSQSVLYSSNQKNYLAWYQQKPGQSPKLLIYWASARESGVPDRFTGSGSGTDFTLTINSVQTEDLAVYYCHQYLSSYTFGGGTKLEIKR
notes: also called MAb 8H3; HRP-8H3
B3: binds (C149-mut-8H3); binds (7-peptide SPPNVRT); binds (7-peptide SAHVLST). The binding result (7-peptide STLFMNF) was “binds”, the binding result (7-peptide SPKMPIL) was “binds” and the “8C11 increases 8H3's reactivity” value (polypeptide 209) was 3 fold. B3: binds (7-peptide ALWGPTS).
